# Data as given in IntAct's records for PubMed 16292983.
# B1: Ankyrin-2 (Homo sapiens), Q01484-2 (parent)
# chain: MMNEDAAQKSDSGEKFNGSSQRRKRPKKSDSNASFLRAARAGNLDKVVEYLKGGIDINTCNQNGLNALHLAAKEGHVGLVQELLGRGSSVDSATKKGNTALHIASLAGQAEVVKVLVKEGANINAQSQNGFTPLYMAAQENHIDVVKYLLENGANQSTATEDGFTPLAVALQQGHNQAVAILLENDTKGKVRLPALHIAARKDDTKSAALLLQNDHNADVQSKMMVNRTTESGFTPLHIAAHYGNVNVATLLLNRGAAVDFTARNGITPLHVASKRGNTNMVKLLLDRGGQIDAKTRDGLTPLHCAARSGHDQVVELLLERGAPLLARTKNGLSPLHMAAQGDHVECVKHLLQHKAPVDDVTLDYLTALHVAAHCGHYRVTKLLLDKRANPNARALNGFTPLHIACKKNRIKVMELLVKYGASIQAITESGLTPIHVAAFMGHLNIVLLLLQNGASPDVTNIRGETALHMAARAGQVEVVRCLLRNGALVDARAREEQTPLHIASRLGKTEIVQLLLQHMAHPDAATTNGYTPLHISAREGQVDVASVLLEAGAAHSLATKKGFTPLHVAAKYGSLDVAKLLLQRRAAADSAGKNGLTPLHVAAHYDNQKVALLLLEKGASPHATAKNGYTPLHIAAKKNQMQIASTLLNYGAETNIVTKQGVTPLHLASQEGHTDMVTLLLDKGANIHMSTKSGLTSLHLAAQEDKVNVADILTKHGADQDAHTKLGYTPLIVACHYGNVKMVNFLLKQGANVNAKTKNGYTPLHQAAQQGHTHIINVLLQHGAKPNATTANGNTALAIAKRLGYISVVDTLKVVTEEVTTTTTTITEKHKLNVPETMTEVLDVSDEEGDDTMTGDGGEYLRPEDLKELGDDSLPSSQFLDGMNYLRYSLEGGRSDSLRSFSSDRSHTLSHASYLRDSAVMDDSVVIPSHQVSTLAKEAERNSYRLSWGTENLDNVALSSSPIHSGFLVSFMVDARGGAMRGCRHNGLRIIIPPRKCTAPTRVTCRLVKRHRLATMPPMVEGEGLASRLIEVGPSGAQFLGKLHLPTAPPPLNEGESLVSRILQLGPPGTKFLGPVIVEIPHFAALRGKERELVVLRSENGDSWKEHFCDYTEDELNEILNGMDEVLDSPEDLEKKRICRIITRDFPQYFAVVSRIKQDSNLIGPEGGVLSSTVVPQVQAVFPEGALTKRIRVGLQAQPMHSELVKKILGNKATFSPIVTLEPRRRKFHKPITMTIPVPKASSDVMLNGFGGDAPTLRLLCSITGGTTPAQWEDITGTTPLTFVNECVSFTTNVSARFWLIDCRQIQESVTFASQVYREIICVPYMAKFVVFAKSHDPIEARLRCFCMTDDKVDKTLEQQENFAEVARSRDVEVLEGKPIYVDCFGNLVPLTKSGQHHIFSFFAFKENRLPLFVKVRDTTQEPCGRLSFMKEPKSTRGLVHQAICNLNITLPIYTKESESDQEQEEEIDMTSEKNPQDEQERIEERLAYIADHLGFSWTELARELDFTEEQIHQIRIENPNSLQDQSHALLKYWLERDGKHATDTNLVECLTKINRMDIVHLMETNTEPLQERISHSYAEIEQTITLDHSEGFSVLQEELCTAQHKQKEEQAVSKESETCDHPPIVSEEDISVGYSTFQDGVPKTEGDSSATALFPQTHKEQVQQDFSGKMQDLPEESSLEYQQEYFVTTPGTETSETQKAMIVPSSPSKTPEEVSTPAEEEKLYLQTPTSSERGGSPIIQEPEEPSEHREESSPRKTSLVIVESADNQPETCERLDEDAAFEKGDDMPEIPPETVTEEEYIDEHGHTVVKKVTRKIIRRYVSSEGTEKEEIMVQGMPQEPVNIEEGDGYSKVIKRVVLKSDTEQSEDNNE
# Variants of: B1
# Conditions: with nac1_human SLC8A1, P32418
row,effect of a mutation on the interaction,Variant
1,disrupting interaction,E1458G
